In the supplement of paper PMC9428881:
± gives the standard error.

assay: background-corrected fluorescence of 3'-dye-labeled ssDNA relative to brightest sequence (3'-GCGCG) (fraction); higher = brighter dye fluorescence (less quenching); conditions: dye: Cy3 (3' terminal)
Procedure: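 Single-stranded DNA is synthesized in situ on glass microarrays by 5'->3' photolithographic synthesis, with a Cy3 or Cy5 phosphoramidite coupled at the 3' end next to all 1024 permuted pentamers P1-P5. The construct is 5'-T5-(ACGT minus P5..P1 trinucleotides)-T15-P5P4P3P2P1-dye-3'; the dye is a 3' terminal modification, not part of the sequence. Arrays were scanned at 532 nm (Cy3) or 635 nm (Cy5), background from unlabeled oligos was subtracted, and values are averaged over 10 replicate features per array and at least 3 independent syntheses.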

| Sequence | background-corrected fluorescence |
| --- | --- |
| TTTTTTCAGCAGCATGAGCATTTTTTTTTTTTTTTGTTCT [TCTTG] | 0.459 ± 0.012 |
| TTTTTTCAGCAGCATGATCATTTTTTTTTTTTTTTGTTCG [GCTTG] | 0.551 ± 0.0098 |
| TTTTTTCAGCAGCATGATGATTTTTTTTTTTTTTTGTTCC [CCTTG] | 0.351 ± 0.018 |
| TTTTTTCAGCAGCATGATGCTTTTTTTTTTTTTTTGTTCA [ACTTG] | 0.492 ± 0.025 |
| TTTTTTCAGCAGCATGCGCATTTTTTTTTTTTTTTGTTAT [TATTG] | 0.546 ± 0.048 |
| TTTTTTCAGCAGCATGCTCATTTTTTTTTTTTTTTGTTAG [GATTG] | 0.541 ± 0.019 |
| TTTTTTCAGCAGCATGCTGATTTTTTTTTTTTTTTGTTAC [CATTG] | 0.447 ± 0.024 |
| TTTTTTCAGCAGCATGCTGCTTTTTTTTTTTTTTTGTTAA [AATTG] | 0.57 ± 0.032 |
| TTTTTTCAGCATCAGCAGCATTTTTTTTTTTTTTTGTGTT | 0.565 ± 0.028 |
| TTTTTTCAGCATCAGCATCATTTTTTTTTTTTTTTGTGTG | 0.604 ± 0.017 |
| TTTTTTCAGCATCAGCATGATTTTTTTTTTTTTTTGTGTC [CTGTG] | 0.4591 ± 0.0035 |
| TTTTTTCAGCATCAGCATGCTTTTTTTTTTTTTTTGTGTA [ATGTG] | 0.595 ± 0.019 |
| TTTTTTCAGCATCATCAGCATTTTTTTTTTTTTTTGTGGT [TGGTG] | 0.659 ± 0.02 |
| TTTTTTCAGCATCATCATCATTTTTTTTTTTTTTTGTGGG [GGGTG] | 0.717 ± 0.024 |
| TTTTTTCAGCATCATCATGATTTTTTTTTTTTTTTGTGGC [CGGTG] | 0.572 ± 0.011 |
| TTTTTTCAGCATCATCATGCTTTTTTTTTTTTTTTGTGGA [AGGTG] | 0.702 ± 0.022 |
| TTTTTTCAGCATCATGAGCATTTTTTTTTTTTTTTGTGCT [TCGTG] | 0.504 ± 0.024 |
| TTTTTTCAGCATCATGATCATTTTTTTTTTTTTTTGTGCG [GCGTG] | 0.568 ± 0.056 |
| TTTTTTCAGCATCATGATGATTTTTTTTTTTTTTTGTGCC [CCGTG] | 0.438 ± 0.022 |
| TTTTTTCAGCATCATGATGCTTTTTTTTTTTTTTTGTGCA [ACGTG] | 0.589 ± 0.02 |
| TTTTTTCAGCATCATGCGCATTTTTTTTTTTTTTTGTGAT [TAGTG] | 0.548 ± 0.032 |
| TTTTTTCAGCATCATGCTCATTTTTTTTTTTTTTTGTGAG [GAGTG] | 0.619 ± 0.028 |
| TTTTTTCAGCATCATGCTGATTTTTTTTTTTTTTTGTGAC [CAGTG] | 0.483 ± 0.02 |
| TTTTTTCAGCATCATGCTGCTTTTTTTTTTTTTTTGTGAA [AAGTG] | 0.607 ± 0.023 |
| TTTTTTCAGCATGAGCAGCATTTTTTTTTTTTTTTGTCTT [TTCTG] | 0.505 ± 0.017 |
| TTTTTTCAGCATGAGCATCATTTTTTTTTTTTTTTGTCTG | 0.54 ± 0.031 |

| Sequence | background-corrected fluorescence |
| --- | --- |
| TTTTTTCAGCATGAGCATGATTTTTTTTTTTTTTTGTCTC [CTCTG] | 0.393 ± 0.034 |
| TTTTTTCAGCATGAGCATGCTTTTTTTTTTTTTTTGTCTA [ATCTG] | 0.539 ± 0.01 |
| TTTTTTCAGCATGATCAGCATTTTTTTTTTTTTTTGTCGT [TGCTG] | 0.581 ± 0.021 |
| TTTTTTCAGCATGATCATCATTTTTTTTTTTTTTTGTCGG [GGCTG] | 0.666 ± 0.025 |
| TTTTTTCAGCATGATCATGATTTTTTTTTTTTTTTGTCGC [CGCTG] | 0.556 ± 0.034 |
| TTTTTTCAGCATGATCATGCTTTTTTTTTTTTTTTGTCGA [AGCTG] | 0.645 ± 0.017 |
| TTTTTTCAGCATGATGAGCATTTTTTTTTTTTTTTGTCCT [TCCTG] | 0.464 ± 0.02 |
| TTTTTTCAGCATGATGATCATTTTTTTTTTTTTTTGTCCG [GCCTG] | 0.54 ± 0.027 |
| TTTTTTCAGCATGATGATGATTTTTTTTTTTTTTTGTCCC [CCCTG] | 0.38 ± 0.023 |
| TTTTTTCAGCATGATGATGCTTTTTTTTTTTTTTTGTCCA [ACCTG] | 0.484 ± 0.021 |
| TTTTTTCAGCATGATGCGCATTTTTTTTTTTTTTTGTCAT [TACTG] | 0.529 ± 0.025 |
| TTTTTTCAGCATGATGCTCATTTTTTTTTTTTTTTGTCAG [GACTG] | 0.546 ± 0.028 |
| TTTTTTCAGCATGATGCTGATTTTTTTTTTTTTTTGTCAC [CACTG] | 0.417 ± 0.0042 |
| TTTTTTCAGCATGATGCTGCTTTTTTTTTTTTTTTGTCAA [AACTG] | 0.609 ± 0.012 |
| TTTTTTCAGCATGCGCAGCATTTTTTTTTTTTTTTGTATT [TTATG] | 0.5 ± 0.07 |
| TTTTTTCAGCATGCGCATCATTTTTTTTTTTTTTTGTATG | 0.57 ± 0.011 |
| TTTTTTCAGCATGCGCATGATTTTTTTTTTTTTTTGTATC [CTATG] | 0.417 ± 0.024 |
| TTTTTTCAGCATGCGCATGCTTTTTTTTTTTTTTTGTATA [ATATG] | 0.55 ± 0.031 |
| TTTTTTCAGCATGCTCAGCATTTTTTTTTTTTTTTGTAGT [TGATG] | 0.575 ± 0.0066 |
| TTTTTTCAGCATGCTCATCATTTTTTTTTTTTTTTGTAGG [GGATG] | 0.618 ± 0.027 |
| TTTTTTCAGCATGCTCATGATTTTTTTTTTTTTTTGTAGC [CGATG] | 0.535 ± 0.028 |
| TTTTTTCAGCATGCTCATGCTTTTTTTTTTTTTTTGTAGA [AGATG] | 0.671 ± 0.021 |
| TTTTTTCAGCATGCTGAGCATTTTTTTTTTTTTTTGTACT [TCATG] | 0.476 ± 0.0074 |
| TTTTTTCAGCATGCTGATCATTTTTTTTTTTTTTTGTACG | 0.561 ± 0.02 |
| TTTTTTCAGCATGCTGATGATTTTTTTTTTTTTTTGTACC [CCATG] | 0.434 ± 0.028 |

same assay, conditions: dye: Cy5 (3' terminal)

| Sequence | background-corrected fluorescence |
| --- | --- |
| TTTTTTCAGCAGCATGAGCATTTTTTTTTTTTTTTGTTCT [TCTTG] | 0.367 ± 0.027 |
| TTTTTTCAGCAGCATGATCATTTTTTTTTTTTTTTGTTCG [GCTTG] | 0.371 ± 0.032 |
| TTTTTTCAGCAGCATGATGATTTTTTTTTTTTTTTGTTCC [CCTTG] | 0.275 ± 0.015 |
| TTTTTTCAGCAGCATGATGCTTTTTTTTTTTTTTTGTTCA [ACTTG] | 0.389 ± 0.044 |
| TTTTTTCAGCAGCATGCGCATTTTTTTTTTTTTTTGTTAT [TATTG] | 0.389 ± 0.017 |
| TTTTTTCAGCAGCATGCTCATTTTTTTTTTTTTTTGTTAG [GATTG] | 0.438 ± 0.067 |
| TTTTTTCAGCAGCATGCTGATTTTTTTTTTTTTTTGTTAC [CATTG] | 0.338 ± 0.055 |
| TTTTTTCAGCAGCATGCTGCTTTTTTTTTTTTTTTGTTAA [AATTG] | 0.446 ± 0.027 |
| TTTTTTCAGCATCAGCAGCATTTTTTTTTTTTTTTGTGTT | 0.435 ± 0.082 |
| TTTTTTCAGCATCAGCATCATTTTTTTTTTTTTTTGTGTG | 0.43 ± 0.03 |
| TTTTTTCAGCATCAGCATGATTTTTTTTTTTTTTTGTGTC [CTGTG] | 0.356 ± 0.068 |
| TTTTTTCAGCATCAGCATGCTTTTTTTTTTTTTTTGTGTA [ATGTG] | 0.434 ± 0.027 |
| TTTTTTCAGCATCATCAGCATTTTTTTTTTTTTTTGTGGT [TGGTG] | 0.544 ± 0.031 |
| TTTTTTCAGCATCATCATCATTTTTTTTTTTTTTTGTGGG [GGGTG] | 0.586 ± 0.041 |
| TTTTTTCAGCATCATCATGATTTTTTTTTTTTTTTGTGGC [CGGTG] | 0.439 ± 0.041 |
| TTTTTTCAGCATCATCATGCTTTTTTTTTTTTTTTGTGGA [AGGTG] | 0.606 ± 0.037 |
| TTTTTTCAGCATCATGAGCATTTTTTTTTTTTTTTGTGCT [TCGTG] | 0.414 ± 0.05 |
| TTTTTTCAGCATCATGATCATTTTTTTTTTTTTTTGTGCG [GCGTG] | 0.499 ± 0.028 |
| TTTTTTCAGCATCATGATGATTTTTTTTTTTTTTTGTGCC [CCGTG] | 0.332 ± 0.028 |
| TTTTTTCAGCATCATGATGCTTTTTTTTTTTTTTTGTGCA [ACGTG] | 0.483 ± 0.028 |
| TTTTTTCAGCATCATGCGCATTTTTTTTTTTTTTTGTGAT [TAGTG] | 0.429 ± 0.021 |
| TTTTTTCAGCATCATGCTCATTTTTTTTTTTTTTTGTGAG [GAGTG] | 0.472 ± 0.057 |
| TTTTTTCAGCATCATGCTGATTTTTTTTTTTTTTTGTGAC [CAGTG] | 0.387 ± 0.064 |
| TTTTTTCAGCATCATGCTGCTTTTTTTTTTTTTTTGTGAA [AAGTG] | 0.511 ± 0.032 |
| TTTTTTCAGCATGAGCAGCATTTTTTTTTTTTTTTGTCTT [TTCTG] | 0.364 ± 0.03 |
| TTTTTTCAGCATGAGCATCATTTTTTTTTTTTTTTGTCTG | 0.387 ± 0.025 |

| Sequence | background-corrected fluorescence |
| --- | --- |
| TTTTTTCAGCATGAGCATGATTTTTTTTTTTTTTTGTCTC [CTCTG] | 0.33 ± 0.043 |
| TTTTTTCAGCATGAGCATGCTTTTTTTTTTTTTTTGTCTA [ATCTG] | 0.381 ± 0.021 |
| TTTTTTCAGCATGATCAGCATTTTTTTTTTTTTTTGTCGT [TGCTG] | 0.451 ± 0.032 |
| TTTTTTCAGCATGATCATCATTTTTTTTTTTTTTTGTCGG [GGCTG] | 0.506 ± 0.027 |
| TTTTTTCAGCATGATCATGATTTTTTTTTTTTTTTGTCGC [CGCTG] | 0.444 ± 0.032 |
| TTTTTTCAGCATGATCATGCTTTTTTTTTTTTTTTGTCGA [AGCTG] | 0.548 ± 0.034 |
| TTTTTTCAGCATGATGAGCATTTTTTTTTTTTTTTGTCCT [TCCTG] | 0.346 ± 0.024 |
| TTTTTTCAGCATGATGATCATTTTTTTTTTTTTTTGTCCG [GCCTG] | 0.429 ± 0.081 |
| TTTTTTCAGCATGATGATGATTTTTTTTTTTTTTTGTCCC [CCCTG] | 0.294 ± 0.019 |
| TTTTTTCAGCATGATGATGCTTTTTTTTTTTTTTTGTCCA [ACCTG] | 0.366 ± 0.023 |
| TTTTTTCAGCATGATGCGCATTTTTTTTTTTTTTTGTCAT [TACTG] | 0.39 ± 0.03 |
| TTTTTTCAGCATGATGCTCATTTTTTTTTTTTTTTGTCAG [GACTG] | 0.404 ± 0.051 |
| TTTTTTCAGCATGATGCTGATTTTTTTTTTTTTTTGTCAC [CACTG] | 0.336 ± 0.022 |
| TTTTTTCAGCATGATGCTGCTTTTTTTTTTTTTTTGTCAA [AACTG] | 0.453 ± 0.04 |
| TTTTTTCAGCATGCGCAGCATTTTTTTTTTTTTTTGTATT [TTATG] | 0.375 ± 0.03 |
| TTTTTTCAGCATGCGCATCATTTTTTTTTTTTTTTGTATG | 0.419 ± 0.027 |
| TTTTTTCAGCATGCGCATGATTTTTTTTTTTTTTTGTATC [CTATG] | 0.309 ± 0.019 |
| TTTTTTCAGCATGCGCATGCTTTTTTTTTTTTTTTGTATA [ATATG] | 0.404 ± 0.027 |
| TTTTTTCAGCATGCTCAGCATTTTTTTTTTTTTTTGTAGT [TGATG] | 0.459 ± 0.032 |
| TTTTTTCAGCATGCTCATCATTTTTTTTTTTTTTTGTAGG [GGATG] | 0.51 ± 0.1 |
| TTTTTTCAGCATGCTCATGATTTTTTTTTTTTTTTGTAGC [CGATG] | 0.441 ± 0.081 |
| TTTTTTCAGCATGCTCATGCTTTTTTTTTTTTTTTGTAGA [AGATG] | 0.533 ± 0.039 |
| TTTTTTCAGCATGCTGAGCATTTTTTTTTTTTTTTGTACT [TCATG] | 0.399 ± 0.025 |
| TTTTTTCAGCATGCTGATCATTTTTTTTTTTTTTTGTACG | 0.475 ± 0.031 |
| TTTTTTCAGCATGCTGATGATTTTTTTTTTTTTTTGTACC [CCATG] | 0.311 ± 0.017 |
